Patent US20180280504A1, “GLYCAN-INTERACTING COMPOUNDS AND METHODS OF USE” (SIAMAB THERAPEUTICS, INC., priority 2014, published 2018)
Like-named read-outs stand apart in the source and are kept apart here.

Tests used:
[1] = tested on: MDA-MB-231-STn+ cells; test: Cell viability assay with secondary antibody-drug conjugate (2° ADC), STn+ cells; format: cell-based, human; conditions: for IC50: MDA-MB-231-STn+ cells
Method: Cell viability assays are performed to screen anti-STn antibodies of the present invention in the presence and absence of secondary antibody-drug conjugates (2° ADCs). The purpose of the screen is to identify the ability of each anti-STn antibody to inhibit cell growth. Antibodies with potent cell growth inhibition are used to design direct antibody-drug conjugates (ADCs). Using such secondary antibody-drug conjugates (2° ADCs) in cell-based cytotoxic assays can quickly pre-screen many ADC candidates against tumor cells. Based on the assay, a naked antibody candidate is directly added to cells in the presence of a 2° ADC. Internalization of the mAb/2° ADC complex into cells that express a high density of the targeted antigen can achieve a dose-dependent drug release within the cells, causing a cytotoxic effect to kill the cells (e.g., tumor cells), while cells expressing a low density of the targeted antigen are not affected (e.g., normal cells).
To perform cell viability assays, cell lines described in the present application (MDA-MB-231 parental, MDA-MB-231-STn+, and OV-90) are prepared and cultured for the assays. The cell culture is optimized for cell density by plating different densities of cells (e.g., 2,000, 4,000 and 7,500 per well) on a 96-well plate and observing the cell growth for 96 hours. The plating condition in which cells reach around 90% confluence at the end of the 96 hours is identified and the optimal cell number is then used in the final viability assay.
Duplicate or triplicate cell plates for each cell line are used for testing each antibody candidate.
For cell viability assays, data points are collected for each antibody candidate with duplicates for each data point. Each antibody candidate is diluted in serial concentrations from 0.3 pM to 20 nM.
Alternatively, data points are collected for each antibody candidate with triplicates for each data point. Each antibody candidate is diluted in serial concentrations from 1 pM to 20 nM.
Cell viabilities are measured by Cell-Titer Glo luminescence based assays.
Three anti-STn monoclonal antibodies (anti-STn antibodies S3F, 7G9 and 2D4) and an anti-EGFR monoclonal antibody LA22 were tested for internalization. Six plates of cell culture, two per cell line (MDA-MB-231 parental, MDA-MB-231-STn+, and OV-90), were used to assay the antibody candidates. Each plate can be used to assay the four antibody candidates simultaneously. A secondary anti-IgG antibody conjugated to MMAF (monomethyl auristatin phenylalanine), a non-permeable Aurastatin analog, was used as the 2° ADC. Cell viability was then measured using CellTitreGlo Luminescent Cell Viability Assay (Promega, Madison, Wis.).

[2] = tested on: MDA-MB-231 cells expressing cell-surface Neu5Ac-STn; test: Flow cytometry assay to quantify antibody internalization; format: cell-based, human; conditions: for % cells exhibiting 488 fluorescence: 4° C.; for internalization (conclusion): Neu5Ac-STn-overexpressing MDA-MB-231 cells
Method: For analysis, stably transfected variants of MDA-MB-231 cells (clone TAH3.P10) that express high levels of cell surface-bound Neu5Ac-STn are harvested using 10 mM EDTA and washed with PBS comprising 1% BSA before pelleting by light centrifugation. Cell numbers and viability are determined by trypan blue dye exclusion analysis and cell concentrations are adjusted to 5×10^6 cells/ml in PBS with 1% BSA. 50 μl of cells are added to each well of an assay plate. Cells are combined with 50 μl solutions of antibody or fluorescently-labeled antibody and incubated for 1 hour at 4° C. Following this incubation period, cells are washed with PBS to remove unbound antibody and aliquots are removed for incubation for various times (15, 30, 60 minutes) at 37° C. to allow bound antibody to internalize at a physiologically relevant temperature. After each incubation, cell surface-bound antibody is removed by treating cells with acidic medium (150 mM NaCl, pH=2.5) Cells treated with unlabeled antibody are washed with PBS and fixed with paraformaldehyde fixation buffer (PFA) containing 3% paraformaldehyde and 2% sucrose in PBS for 15 minutes at room temperature. These cells are rinsed again in PBS and treated with blocking buffer made up of PBS with 1% bovine serum albumin (BSA). Cells are incubated for 30 min at room temperature, rinsed in PBS and treated with secondary antibody (allophycocyanin-labeled goat-anti-mouse IgG) for 2 hours at room temperature. All cells are then washed with PBS and subjected to flow cytometry analysis wherein 10,000 events are recorded for each sample. Residual fluorescent signal in acid-treated samples is further quenched via treatment with trypan blue dye.
Flow cytometry analysis was carried out in order to quantify the extent of antibody internalization according to the procedure of Example 15. MDA-MB-231 cells expressing high levels of cell-surface bound Neu5Ac-STn were harvested using StemPro Accutase buffer and washed with PBS comprising 5% FBS before pelleting by light centrifugation. Cell numbers and viability were determined by trypan blue dye exclusion analysis and cell concentrations were adjusted to 5×10^6 cells/ml in PBS with 5% FBS. 50 μl of cells were added to each well of an assay plate. Cells were then combined with 50 μl solutions of antibody S3F or ALEXA FLUOR® 488-conjugated antibodies S3F, 7G9 or GB26.6 and incubated for 1 hour at 4° C. Following this incubation period, cells were washed with PBS to remove unbound antibody and aliquots were removed for incubation for various times (15, 30, 60 minutes) at 37° C. After each incubation, cells were treated with acidic medium (150 mM NaCl, pH=2.5) to remove surface-bound antibody. Cells treated with unlabeled S3F were washed with PBS 5% FCS. Secondary antibody (allophycocyanin-labeled goat-anti-mouse IgG) was added to the cells and incubated for 30 min at 4° C., rinsed in PBS 5% FBS and kept on ice until flow cytometry analysis. All cells were then washed with PBS and subjected to flow cytometry analysis wherein 10,000 events were recorded for each sample.
Culturing and harvesting of MDA-STn+ cells was performed according to Example 14. Staining of MDA-STn+ cells with S3F antibody included either unlabeled S3F or S3F directly labeled with ALEXA FLUOR® 488 (Thermo Fisher Scientific, Pittsburgh, Pa.). Stained control vials were kept at 4° C. until analysis was performed. Controls included a GB26.6 antibody negative control for STn binding, unstained control, and unlabeled S3F antibody followed by an APC secondary antibody. Vials for each experimental time point (15, 30 and 60 min) were incubated in complete media at 37° C. 5% CO2 to allow for antibody internalization. Immediately prior to analysis by flow cytometry, non-internalized antibody was stripped from the cell surface of experimental samples using 150 mM NaCl pH 2.5 (acidic buffer).

[3] = with 2° ADC Fab αMFc-CL-MMAF, CellTitreGlo, read-out: IC50 (nM), secondary internalization assay
[4] = ALEXA FLUOR 488-conjugated antibody, acid
[5] = ALEXA FLUOR 488-conjugated antibody, no acid

Molecule	IC50 [1, 3] [nM]	activity in MDA-MB-231-STn+ cells ([1]; with 2° ADC Fab αMFc-CL-MMAF)	% cells exhibiting 488 fluorescence [2, 4]	% cells exhibiting 488 fluorescence [2, 5]	% fluorescent cells prior to acid treatment and trypan blue exposure ([2]; ALEXA FLUOR 488-conjugated antibody, 37° C. for various times)	% of cells exhibiting fluorescence after acidic buffer and trypan blue ([2]; ALEXA FLUOR 488-conjugated antibody, 37° C., trypan blue quench of surface signal)	% fluorescent cells after trypan blue ([2]; ALEXA FLUOR 488-conjugated antibody, stained at 4° C., trypan blue)	internalization (conclusion) [2]	% cells exhibiting 488 fluorescence ([2]; ALEXA FLUOR 488-conjugated antibody, then 37° C. 15 min, acid) [%]	% cells exhibiting 488 fluorescence ([2]; ALEXA FLUOR 488-conjugated antibody, then 37° C. 15 min, no acid) [%]	% cells exhibiting 488 fluorescence ([2]; ALEXA FLUOR 488-conjugated antibody, then 37° C. 30 min, acid) [%]	% cells exhibiting 488 fluorescence ([2]; ALEXA FLUOR 488-conjugated antibody, then 37° C. 30 min, no acid) [%]	% cells exhibiting 488 fluorescence ([2]; ALEXA FLUOR 488-conjugated antibody, then 37° C. 60 min, acid) [%]	% cells exhibiting 488 fluorescence ([2]; ALEXA FLUOR 488-conjugated antibody, then 37° C. 60 min, no acid) [%]	% of cells exhibiting fluorescence after the staining period ([2]; ALEXA FLUOR 488-conjugated antibody, no acid, range over samples)	IC50 ([1]; unit inferred, b641, read-out: IC50 in the presence of Fab αMFc-CL-MMAF) [nM]
2D4: anti-STn mouse monoclonal, IgG2b κ, from mouse #4407; VH SEQ ID NO: 10, VL SEQ ID NO: 11 (antibody, V domains shown) VH: QVQLQESGPGLVAPSQSLSITCTVSGFSLISYGVNWVRQPPGKGLEWLGVIWGDGSTNYQSALISRLIISKDNSKSQVFLKLNSLQTDDTATYYCTKGFAYWGQGTLVTVSA VL: QIVLTQSPAIMSASPGEKVTMTCSASSSVSYMHWFQQKSGTSPKRWIYDTSKLASGVPARFSGSGSGTSYSLTISSMEAEDAATYYCQQWSSNLLTFGAGTKLELK	0.056	demonstrate activity														
7G9: anti-STn mouse monoclonal, IgG2b κ, from mouse #4407; VH SEQ ID NO: 12, VL SEQ ID NO: 9 (antibody, V domains shown) VH: QVQLKESGPGLVAPSQNLSITCTVSGFSLTSYGVNWVRQPPGKGLEWLGVIWGDGSTNYHSALISRLIISKENSKSQVFLKLNSLQTNDTATYYCTKGFVYWGQGTLVTVSA VL: QIVLTQSPAIMSASPGEKVTMTCSASSSVSYMHWYQQKSGTSPKRWIFDTSKLASGVPARFSGSGSGTSYSLTISSMEAEDAATYYCQQWSSNLLTFGAGTKLELK	0.181	demonstrate activity	approximately 70%	approximately 80%	60-80%	20-45%	less than 20%	successfully internalized								
S3F: 3F1 variable domains combined with IgG2a constant domains; heavy chain SEQ ID NO: 63, light chain SEQ ID NO: 64 (antibody) heavy: QVQLQQSDAELVKPGASVKISCKASGYTFTDHAIHWVKQKPEQGLDWIGYISPGNGDIKYNEKFKDKVTLTADKSSSTACMHLNSLTSEDSAVYFCKRSLLALDYWGQGTTLTVSSAKTTAPSVYPLAPVCGDTTGSSVTLGCLVKGYFPEPVTLTWNSGSLSSGVHTFPAVLQSDLYTLSSSVTVTSSTWPSQSITCNVAHPASSTKVDKKIEPRGPTIKPCPPCKCPAPNLLGGPSVFIFPPKIKDVLMISLSPIVTCVVVDVSEDDPDVQISWFVNNVEVHTAQTQTHREDYNSTLRVVSALPIQHQDWMSGKEFKCKVNNKDLPAPIERTISKPKGSVRAPQVYVLPPPEEEMTKKQVTLTCMVTDFMPEDIYVEWTNNGKTELNYKNTEPVLDSDGSYFMYSKLRVEKKNWVERNSYSCSVVHEGLHNHHTTKSFSRTPGK light: DIVMTQSHKFMSTSVGDRVSITCKASQDVGTNIAWYQQKPGRSPKVLIYSASTRHTGVPDRFTGSGSGTDFTLTISNVQSEDLTDYFCQQYSSFPLTFGVGTKLELKRADAAPTVSIFPPSSEQLTSGGASVVCFLNNFYPKDINVKWKIDGSERQNGVLNSWTDQDSKDSTYSMSSTLTLTKDEYERHNSYTCEATHKTSTSPIVKSFNRNEC	0.058	demonstrate activity	9.29%	57.9%				can be internalized	22.5	56.6	25.9	53.1	31.5	50.9	50-57%	0.124
